Measurements from the supplement of paper PMC9732359.
± gives the uncertainty stated by the source.

Assay: protein stability index of a GFP-peptide fusion (yeast GPS) (PSI 1-4); higher = more stable; sorted into four equal gates, so the index is relative within each strain
Summary of the method: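 For each peptide, the protein stability index sums the read frequency in every gate after multiplying it by the gate number. Read frequencies came from plasmids that were PCR-amplified from each gate and Illumina-sequenced, with reads assigned to strains by barcodes. The gates were four equal bins of GFP/Cherry fluorescence ratio applied to mid-log yeast in leucine-free medium carrying a pooled library of tiled 17-residue yeast protein peptides fused downstream of GFP on a Cherry-expressing plasmid.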

| Sequence | protein stability index (doa10∆) | protein stability index (pdr5∆) | protein stability index (san1∆) | protein stability index (ubr1∆) |
| --- | --- | --- | --- | --- |
| GGVDVGPSVESYELRNT [SNF5] | 2.9 ± 0.1 | 3.15 ± 0.11 | 3.04 ± 0.075 | 3.28 ± 0.079 |
| LNATTAMDLAQMLIQGV [BRR2] | 3.08 ± 0.18 | 1.68 ± 0.11 | 2.58 ± 0.094 | 1.55 ± 0.083 |
| RPPNGIKNFKSLLLSSS [SSN2] | 1.51 ± 0.047 | 1.53 ± 0.047 | 1.83 ± 0.12 | 1.48 ± 0.037 |
| LGLCLVIQIVTGIFMAM [COB] | 1.36 ± 0.053 | 1.2 ± 0.045 | 1.23 ± 0.13 | 1.42 ± 0.045 |
| CDSYLDADKELSFEINV [BRR2] | 2.64 ± 0.08 | 2.73 ± 0.062 | 2.92 ± 0.057 | 2.7 ± 0.047 |
| NDWQMLEMLKPCVEDGF [RPB2] | 2.79 ± 0.09 | 3.22 ± 0.21 | 3.06 ± 0.12 | 2.68 ± 0.099 |
| NESFNRRISSMPGGYFH [YAR002W/NUP60] | 2.88 ± 0.09 | 3.17 ± 0.089 | 3.07 ± 0.099 | 3.04 ± 0.043 |
| SRKRGGENVFLKRISDG [SIR3] | 3.35 ± 0.086 | 3.29 ± 0.072 | 3.07 ± 0.052 | 3.24 ± 0.037 |
| MFSPLVDSGSNDAMAGG [RPO21] | 3.3 ± 0.16 | – | 3.37 ± 0.26 | – |
| IELLSDLINILEKKGFS [LIN1] | 1.22 ± 0.075 | 1.43 ± 0.082 | 1.28 ± 0.17 | 1.35 ± 0.062 |
| FKMNEIVPLHSPFLMGH [SEC65] | 2.71 ± 0.067 | 2.59 ± 0.072 | 2.59 ± 0.082 | 2.62 ± 0.057 |
| LSQVYPTLVRSVISGNL [CSN12] | 2.54 ± 0.072 | 2.92 ± 0.08 | 2.83 ± 0.1 | 2.48 ± 0.078 |
| VSIKFTNAAFPFHDPEA [ECM29] | 2.3 ± 0.053 | 2.11 ± 0.053 | 1.91 ± 0.068 | 1.83 ± 0.047 |
| NFEYDLSEYDAIQKKDN [YOR098C/NUP1] | 2.9 ± 0.2 | 3.23 ± 0.13 | 2.15 ± 0.26 | 3.23 ± 0.064 |
| SVQNLDQLLTDLIETSF [NUT1] | 2.9 ± 0.15 | 2.64 ± 0.1 | 2.94 ± 0.066 | 2.85 ± 0.11 |
| SNIIHDESDTISFRSNL [SNF6] | 2.79 ± 0.1 | 2.68 ± 0.079 | 2.85 ± 0.098 | 2.7 ± 0.067 |
| WPKTRGVAMNPVDHPHG [RPL2A] | 2.37 ± 0.078 | 2.25 ± 0.057 | 2.74 ± 0.058 | 2.55 ± 0.066 |
| IDPDTKAPNAVVITFEK [RPB11] | – | 3.22 ± 0.17 | 3.09 ± 0.094 | 2.93 ± 0.15 |
| KLLFQELMAMNITPRLY [RPB2] | 1.27 ± 0.1 | 1.39 ± 0.066 | 1.24 ± 0.13 | 1.43 ± 0.048 |
| AQDVALAKKWFLQHPDE [PRP8] | 2.7 ± 0.089 | 2.38 ± 0.095 | 2.33 ± 0.13 | 2.67 ± 0.077 |
| DSIIDNIVKLCFVHRYK [IRR1] | 2.57 ± 0.11 | 1.95 ± 0.042 | 1.99 ± 0.11 | 2.08 ± 0.035 |
| LLNILSGLPTCDYYNTF [RPN2] | 2.44 ± 0.1 | 2.73 ± 0.13 | 2.03 ± 0.16 | 2.3 ± 0.095 |
| RFNHLVTRLFFICSIIQ [YML031W/NDC1] | 1.22 ± 0.046 | 1.29 ± 0.039 | 1.32 ± 0.086 | 1.49 ± 0.039 |
| VKSLRQGKSKLIIIAAN [RPL30] | 2.03 ± 0.11 | 1.4 ± 0.11 | 1.62 ± 0.22 | 1.96 ± 0.084 |
| ARYYRTVAVLPPNWKYE [RPS13] | 1.89 ± 0.044 | 2.1 ± 0.039 | 2.18 ± 0.051 | 1.92 ± 0.029 |
| TGSLMGGNSTQNTSNMN [YGR119C/NUP57] | 3.19 ± 0.076 | 3.24 ± 0.064 | 3.07 ± 0.052 | 3.18 ± 0.048 |
| KNLISRINTLPQVQLPV [ECM29] | 2.85 ± 0.13 | 2.86 ± 0.1 | 2.9 ± 0.16 | 2.83 ± 0.17 |

| Sequence | protein stability index (doa10∆) | protein stability index (pdr5∆) | protein stability index (san1∆) | protein stability index (ubr1∆) |
| --- | --- | --- | --- | --- |
| QFVETIVSKSIEMYVQE [RPN2] | 1.51 ± 0.13 | – | 1.05 ± 0.11 | 1.15 ± 0.2 |
| SKEETVDFIKHSLSQAI [PRE3] | 2.56 ± 0.065 | 2.65 ± 0.063 | 2.66 ± 0.056 | 2.7 ± 0.053 |
| NFLSKIRNINVQDALLT [SNF2] | 1.63 ± 0.047 | 1.99 ± 0.054 | 1.77 ± 0.083 | 1.54 ± 0.032 |
| TPAELVGKFLGYVSSLV [FAS1] | 1.93 ± 0.064 | 2.04 ± 0.085 | 1.73 ± 0.081 | 2.06 ± 0.055 |
| DQLAVSPEQIDASPDSL [YCS4] | 1.62 ± 0.071 | 1.89 ± 0.081 | 1.65 ± 0.1 | 1.86 ± 0.06 |
| LPPPEDVAFLKTAYSIY [RPN1] | 2.4 ± 0.06 | 2.36 ± 0.052 | 2.46 ± 0.069 | 2.47 ± 0.053 |
| YFYDLDVLKDGENNINF [BRN1] | 3.57 ± 0.22 | 3.4 ± 0.15 | 3.54 ± 0.079 | 3.29 ± 0.11 |
| IITKNENFLKEVFQLRI [GAL11] | 1.56 ± 0.091 | 1.54 ± 0.067 | 1.54 ± 0.11 | 1.26 ± 0.062 |
| QSRVPTSLTSIKWENAF [PRP8] | 3.21 ± 0.077 | 3.3 ± 0.11 | 3.44 ± 0.072 | 3.18 ± 0.048 |
| KSSVPGSAELRNSYPAS [RPN3] | 2.66 ± 0.089 | 3.33 ± 0.076 | 2.73 ± 0.078 | 3.25 ± 0.095 |
| RSRKTVKAQRPITGASL [RPL24A] | 3.34 ± 0.077 | 3.22 ± 0.11 | 3.14 ± 0.12 | 3.24 ± 0.088 |
| RFWSFMKTQRFVSNMGF [SIR4] | 1.55 ± 0.21 | 1.4 ± 0.11 | 1.82 ± 0.13 | 1.68 ± 0.048 |
| KNLKPQEQLKNVKNDVS [YIL149C/MLP2] | 3.23 ± 0.089 | 3.21 ± 0.067 | 2.51 ± 0.1 | 3.01 ± 0.096 |
| QALQMKAMDIPIGRHEE [SWP82] | 2.86 ± 0.22 | 2.29 ± 0.13 | – | 2.08 ± 0.062 |
| TKLNLHCVIEDDESEQI [RRI1] | 2.2 ± 0.29 | 3.16 ± 0.17 | 2.69 ± 0.12 | 2.65 ± 0.15 |
| YPEDKKTQQNEKSENGE [RPN3] | – | – | 3.22 ± 0.041 | 3.13 ± 0.12 |
| PKNFGIGQAVQPKRNLS [RPL8A] | 2.74 ± 0.064 | 2.74 ± 0.056 | 2.78 ± 0.043 | 2.69 ± 0.05 |
| KLALGIALEGYRLDIIE [RPN2] | 2.51 ± 0.15 | 1.77 ± 0.11 | – | 2.19 ± 0.083 |
| SASFSLKNGDKPHMLKF [RPL6A] | 2.81 ± 0.083 | 1.84 ± 0.055 | 2.89 ± 0.06 | 3.13 ± 0.033 |
| NKLEKLNSLLTYIKSEI [SMC4] | 2.73 ± 0.061 | 2.32 ± 0.045 | 2.66 ± 0.057 | 2.87 ± 0.036 |
| LEIALFKYRKARLEPGT [RPO31] | 3.24 ± 0.17 | 1.69 ± 0.13 | 2.37 ± 0.12 | 2.85 ± 0.09 |
| TRNSNNLAIVELVRLLI [BRR2] | 2.56 ± 0.06 | 2.29 ± 0.049 | 2.53 ± 0.066 | 2.4 ± 0.049 |
| NSDDIIDVDMDASPAPS [SRB5] | 2.71 ± 0.051 | 2.89 ± 0.061 | 2.78 ± 0.056 | 3 ± 0.072 |
| RKYEISFGKIYVTKPMV [RPB2] | 1.95 ± 0.092 | 2.44 ± 0.21 | 1.88 ± 0.19 | 2.16 ± 0.11 |
| TYEAIDVPGRELKYELI [RPB2] | 3.01 ± 0.15 | 3.13 ± 0.098 | 3.1 ± 0.18 | 3.81 ± 0.16 |
| NNPQVVNAITVAQQQVQ [SNF5] | 1.69 ± 0.049 | 1.78 ± 0.047 | 1.42 ± 0.075 | 1.99 ± 0.035 |
| NTVPQVTNFNSTNEDQN [SRB5] | 2.83 ± 0.09 | 3.21 ± 0.056 | 3.02 ± 0.051 | 2.9 ± 0.051 |
